Reference: publication PMC3409459, “Absorption, distribution, metabolism and excretion of peginesatide, a novel erythropoiesis-stimulating agent, in rats” (Xenobiotica; the Fate of Foreign Compounds in Biological …, 2011)

Test: Tissue distribution of radioactivity by LSC following combustion, albino rats
Assay type: in vivo, male Sprague-Dawley (albino) rats
Conditions: mean ± SD, n=3
Description: Total captured radioactivity was subsequently measured via LSC.
Male Sprague-Dawley (albino) rats (n = 21; three per time point) were administered a single IV dose of 5 mg·kg^−1 [^14C]-peginesatide (27.5 μCi/kg) and tissue concentrations of radioactivity determined at 0.25, 6, and 24 h, and 7,14,30 and 60 days following dosing. Similarly, male Long Evans (pigmented) rats (n = 21; three per time point) were administered a single IV dose of 5 mg-kg^−1 [^14C]-peginesatide and plasma, skin, and eye concentrations of radioactivity were measured at the various time points through 60 days after dosing. At each time point, blood was collected, the animals sacrificed, and tissues excised. Tissues collected from the Sprague-Dawley rats included blood, plasma, adrenals, bone marrow, brain, eyes, fat, femur, Harderian glands, heart, hypophysis, intestine, kidneys, lungs, liver, pancreas, skeletal muscle, skin, spinal cord, spleen, stomach, submaxillary glands, testes, thymus, thyroid gland, and urinary bladder. Plasma, eyes, non-pigmented skin, and pigmented skin were collected from Long Evans rats. All tissue samples were measured for radioactivity by LSC following combustion. The liver and intestine were first homogenized in distilled water (20% w/v) prior to analysis. The concentration of radioactivity in the blood, plasma, and tissues was calculated and expressed as ug equiv·g^-1 or mLbased on the LSC counts and the specific activity of the dosing solution.

[1] = 7 Days after single IV 5 mg·kg^−1, LSC
[2] = 14 Days after single IV 5 mg·kg^−1, LSC
[3] = 30 Days after single IV 5 mg·kg^−1, LSC
[4] = 60 Days after single IV 5 mg·kg^−1, LSC

Peginesatide
Concentration of the radioactivity, Adrenals [1]: 10.2 ± 1.31 μg equiv·g^−1 or mL | Concentration of the radioactivity, Blood [1]: 3.87 ± 0.291 μg equiv·g^−1 or mL | Concentration of the radioactivity, Bone (femur) [1]: 0.788 ± 0.374 μg equiv·g^−1 or mL | Concentration of the radioactivity, Bone marrow [1]: 8.87 ± 0.641 μg equiv·g^−1 or mL | Concentration of the radioactivity, Brain [1]: 0.200 ± 0.021 μg equiv·g^−1 or mL | Concentration of the radioactivity, Eyes [1]: 0.885 ± 0.111 μg equiv·g^−1 or mL | Concentration of the radioactivity, Fat [1]: 2.11 ± 0.693 μg equiv·g^−1 or mL | Concentration of the radioactivity, Harderian glands [1]: 4.41 ± 0.100 μg equiv·g^−1 or mL | Concentration of the radioactivity, Heart [1]: 4.01 ± 0.344 μg equiv·g^−1 or mL | Concentration of the radioactivity, Intestine [1]: 3.05 ± 0.259 μg equiv·g^−1 or mL | Concentration of the radioactivity, Kidneys [1]: 5.68 ± 0.386 μg equiv·g^−1 or mL | Concentration of the radioactivity, Liver [1]: 12.5 ± 0.727 μg equiv·g^−1 or mL | Concentration of the radioactivity, Lungs [1]: 4.26 ± 0.285 μg equiv·g^−1 or mL | Concentration of the radioactivity, Pancreas [1]: 9.74 ± 0.231 μg equiv·g^−1 or mL | Concentration of the radioactivity, Pituitary [1]: 8.31 ± 0.594 μg equiv·g^−1 or mL | Concentration of the radioactivity, Plasma [1]: 7.80 ± 0.541 μg equiv·g^−1 or mL | Concentration of the radioactivity, Skeletal muscle [1]: 0.563 ± 0.119 μg equiv·g^−1 or mL | Concentration of the radioactivity, Skin [1]: 3.06 ± 0.055 μg equiv·g^−1 or mL | Concentration of the radioactivity, Spinal cord [1]: 0.129 ± 0.067 μg equiv·g^−1 or mL | Concentration of the radioactivity, Spleen [1]: 11.5 ± 0.204 μg equiv·g^−1 or mL | Concentration of the radioactivity, Stomach [1]: 2.36 ± 0.262 μg equiv·g^−1 or mL | Concentration of the radioactivity, Submandibular lymph nodes [1]: 10.6 ± 0.553 μg equiv·g^−1 or mL | Concentration of the radioactivity, Testes [1]: 4.98 ± 0.222 μg equiv·g^−1 or mL | Concentration of the radioactivity, Thymus [1]: 3.39 ± 0.560 μg equiv·g^−1 or mL | Concentration of the radioactivity, Thyroid gland [1]: 17.0 ± 5.26 μg equiv·g^−1 or mL | Concentration of the radioactivity, Urinary bladder [1]: 4.52 ± 1.01 μg equiv·g^−1 or mL | Concentration of the radioactivity, Adrenals [2]: 9.15 ± 2.39 μg equiv·g^−1 or mL | Concentration of the radioactivity, Blood [2]: 1.03 ± 0.229 μg equiv·g^−1 or mL | Concentration of the radioactivity, Bone (femur) [2]: 0.388 ± 0.054 μg equiv·g^−1 or mL | Concentration of the radioactivity, Bone marrow [2]: 6.33 ± 0.683 μg equiv·g^−1 or mL | Concentration of the radioactivity, Brain [2]: 0.102 ± 0.014 μg equiv·g^−1 or mL | Concentration of the radioactivity, Eyes [2]: 0.765 ± 0.022 μg equiv·g^−1 or mL | Concentration of the radioactivity, Fat [2]: 1.14 ± 0.475 μg equiv·g^−1 or mL | Concentration of the radioactivity, Harderian glands [2]: 5.21 ± 0.433 μg equiv·g^−1 or mL | Concentration of the radioactivity, Heart [2]: 2.73 ± 0.254 μg equiv·g^−1 or mL | Concentration of the radioactivity, Intestine [2]: 1.78 ± 0.297 μg equiv·g^−1 or mL | Concentration of the radioactivity, Kidneys [2]: 4.49 ± 1.02 μg equiv·g^−1 or mL | Concentration of the radioactivity, Liver [2]: 8.53 ± 0.754 μg equiv·g^−1 or mL | Concentration of the radioactivity, Lungs [2]: 3.38 ± 0.703 μg equiv·g^−1 or mL | Concentration of the radioactivity, Pancreas [2]: 9.10 ± 0.629 μg equiv·g^−1 or mL | Concentration of the radioactivity, Pituitary [2]: 6.25 ± 1.17 μg equiv·g^−1 or mL | Concentration of the radioactivity, Plasma [2]: 2.00 ± 0.605 μg equiv·g^−1 or mL | Concentration of the radioactivity, Skeletal muscle [2]: 0.379 ± 0.108 μg equiv·g^−1 or mL | Concentration of the radioactivity, Skin [2]: 1.70 ± 0.109 μg equiv·g^−1 or mL | Concentration of the radioactivity, Spinal cord [2]: 0.069 ± 0.030 μg equiv·g^−1 or mL | Concentration of the radioactivity, Spleen [2]: 23.6 ± 2.82 μg equiv·g^−1 or mL | Concentration of the radioactivity, Stomach [2]: 2.00 ± 0.118 μg equiv·g^−1 or mL | Concentration of the radioactivity, Submandibular lymph nodes [2]: 10.9 ± 1.32 μg equiv·g^−1 or mL | Concentration of the radioactivity, Testes [2]: 5.19 ± 0.448 μg equiv·g^−1 or mL | Concentration of the radioactivity, Thymus [2]: 1.81 ± 0.249 μg equiv·g^−1 or mL | Concentration of the radioactivity, Thyroid gland [2]: 13.2 ± 3.52 μg equiv·g^−1 or mL | Concentration of the radioactivity, Urinary bladder [2]: 2.30 ± 0.326 μg equiv·g^−1 or mL | Concentration of the radioactivity, Adrenals [3]: 7.90 ± 1.57 μg equiv·g^−1 or mL | Concentration of the radioactivity, Blood [3]: 0.466 ± 0.054 μg equiv·g^−1 or mL | Concentration of the radioactivity, Bone (femur) [3]: 0.278 ± 0.057 μg equiv·g^−1 or mL | Concentration of the radioactivity, Bone marrow [3]: 4.12 ± 1.37 μg equiv·g^−1 or mL | Concentration of the radioactivity, Brain [3]: 0.080 ± 0.010 μg equiv·g^−1 or mL | Concentration of the radioactivity, Eyes [3]: 0.511 ± 0.147 μg equiv·g^−1 or mL | Concentration of the radioactivity, Fat [3]: 0.582 ± 0.070 μg equiv·g^−1 or mL | Concentration of the radioactivity, Harderian glands [3]: 3.88 ± 0.907 μg equiv·g^−1 or mL | Concentration of the radioactivity, Heart [3]: 1.57 ± 0.244 μg equiv·g^−1 or mL | Concentration of the radioactivity, Intestine [3]: 1.40 ± 0.183 μg equiv·g^−1 or mL | Concentration of the radioactivity, Kidneys [3]: 3.03 ± 0.429 μg equiv·g^−1 or mL | Concentration of the radioactivity, Liver [3]: 3.45 ± 0.808 μg equiv·g^−1 or mL | Concentration of the radioactivity, Lungs [3]: 1.78 ± 0.237 μg equiv·g^−1 or mL | Concentration of the radioactivity, Pancreas [3]: 6.67 ± 1.70 μg equiv·g^−1 or mL | Concentration of the radioactivity, Pituitary [3]: 7.24 ± 0.292 μg equiv·g^−1 or mL | Concentration of the radioactivity, Plasma [3]: 0.780 ± 0.099 μg equiv·g^−1 or mL | Concentration of the radioactivity, Skeletal muscle [3]: 0.152 ± 0.012 μg equiv·g^−1 or mL | Concentration of the radioactivity, Skin [3]: 0.889 ± 0.228 μg equiv·g^−1 or mL | Concentration of the radioactivity, Spinal cord [3]: 0.033 ± 0.016 μg equiv·g^−1 or mL | Concentration of the radioactivity, Spleen [3]: 17.7 ± 4.96 μg equiv·g^−1 or mL | Concentration of the radioactivity, Stomach [3]: 1.28 ± 0.106 μg equiv·g^−1 or mL | Concentration of the radioactivity, Submandibular lymph nodes [3]: 7.86 ± 1.19 μg equiv·g^−1 or mL | Concentration of the radioactivity, Testes [3]: 4.33 ± 1.00 μg equiv·g^−1 or mL | Concentration of the radioactivity, Thymus [3]: 1.14 ± 0.138 μg equiv·g^−1 or mL | Concentration of the radioactivity, Thyroid gland [3]: 13.9 ± 3.33 μg equiv·g^−1 or mL | Concentration of the radioactivity, Urinary bladder [3]: 1.77 ± 0.889 μg equiv·g^−1 or mL | Concentration of the radioactivity, Adrenals [4]: 5.32 ± 0.996 μg equiv·g^−1 or mL | Concentration of the radioactivity, Blood [4]: 0.170 ± 0.036 μg equiv·g^−1 or mL | Concentration of the radioactivity, Bone (femur) [4]: 0.046 ± 0.001 μg equiv·g^−1 or mL | Concentration of the radioactivity, Bone marrow [4]: 0.361 ± 0.142 μg equiv·g^−1 or mL | Concentration of the radioactivity, Brain [4]: 0.057 ± 0.006 μg equiv·g^−1 or mL | Concentration of the radioactivity, Eyes [4]: 0.299 ± 0.076 μg equiv·g^−1 or mL | Concentration of the radioactivity, Fat [4]: 0.456 ± 0.135 μg equiv·g^−1 or mL | Concentration of the radioactivity, Harderian glands [4]: 2.75 ± 0.281 μg equiv·g^−1 or mL | Concentration of the radioactivity, Heart [4]: 1.14 ± 0.205 μg equiv·g^−1 or mL | Concentration of the radioactivity, Intestine [4]: 0.624 ± 0.033 μg equiv·g^−1 or mL | Concentration of the radioactivity, Kidneys [4]: 2.11 ± 0.574 μg equiv·g^−1 or mL | Concentration of the radioactivity, Liver [4]: 1.17 ± 0.199 μg equiv·g^−1 or mL | Concentration of the radioactivity, Lungs [4]: 1.05 ± 0.238 μg equiv·g^−1 or mL | Concentration of the radioactivity, Pancreas [4]: 5.92 ± 0.436 μg equiv·g^−1 or mL
